Values quoted from earlier work in US20050054617A1, “Use of potent, selective and non toxic c-kit inhibitors for treating mastocytosis” (priority 2001, published 2005).

System: systemic mastocytosis
Conditions: person, infiltration of bone marrow, skin and gastric mucosa; recurrence after four months

B1: INFγ: interferon used in the art for mastocytosis (protein, UniProt P01579 24-161, looked up)
Interferon gamma: QDPYVKEAENLKKYFNAGHSDVADNGTLFLGILKNWKEESDRKIMQSQIVSFYFKLFKNFKDDQSIQKSVETIKEDMNVKFFNSNKKKRDDFEKLTNYSVTDLNVQRKAIHELIQVMAELSPAAKTGKRKRSQMLFRG
clinical outcome in systemic mastocytosis: improvement of the clinical situation and gastrointestinal and hematological signs
